Laboratory results taken from US7618621B2, “Mammalian multipotent neural stem cells and compositions, methods of preparation and methods of administration thereof” (The Board of Trustees of the University of Illinois, priority 2002, dated 2009).

B1: CNTF: ciliary neurotrophic factor (protein, UniProt P26441 1-200, looked up)
Ciliary neurotrophic factor: MAFTEHSPLTPHRRDLCSRSIWLARKIRSDLTALTESYVKHQGLNKNINLDSADGMPVASTDQWSELTEAERLQENLQAYRTFHVLLARLLEDQQVHFTPTEGDFHQAIHTLLLQVAAFAYQIEELMILLEYKIPRNEADGMPINVGDGGLFEKKLWGLKVLQELSQWTVRSIHDLRFISSHQTGIPARGSHYIANNKKM
B2: TGF-b3: human recombinant transforming growth factor beta 3 (R&D) (protein, UniProt P10600 301-412, looked up)
Transforming growth factor …: ALDTNYCFRNLEENCCVRPLYIDFRQDLGWKWVHEPKGYYANFCSGPCPYLRSADTTHSTVLGLYNTLNPEASASPCCVPQDLEPLTILYYVGRTPKVEQLSNMVVKSCKCS

Key:
human NSCs = test: Retinal differentiation of human NSCs in vitro (opsin immunocytochemistry); type: cell-based; conditions: for differentiation of NSCs into retinal cells (opsin staining): FIG. 7(II), serum-free differentiation, 20 ng/ml IGF-1, 100 ng/ml TGF-b3, 10 ng/ml CNTF; for differentiation of NSCs into opsin-positive cells: factor for 3 days before, or for 5 days during, spontaneous differentiation in serum-free condition, 50 ng/ml
Procedure: Two kinds of differentiation studies were performed: treatment of human NSCs with factors (i) before and (ii) during spontaneous differentiation under a basal media condition. In the first example, NSCs were differentiated under a serum-free differentiation condition in the presence of TGF-b3 (R&D, 50 ng/ml (1 ng/ml to 1 ug/ml)) and VEGF (R&D, 50 ng/ml (1 ng/ml to 1 ug/ml)) for 5 days in Lab-Teck II chamber slides (Nalge Nunc). The second example elucidated whether pretreatment of NSCs is sufficient to produce retinal lineages in these cells. The NSCs were treated with these factors for 3 days, and then differentiated for 5 days under the serum-free differentiation condition in the absence of these factors in the Lab-Teck II chamber slides. As a control, human NSCs were differentiated for 5 days in a no-factor treatment under a serum-free differentiation condition. After differentiation, cells were examined by double-immunofluorescent-cytochemistry (Kim et al., 2002, Proc. Natl. Acad. Sci. U S A 99: 4020-5) with antibodies in a combination of goat anti-GFAP (1:100, Research Diagnostics) and mouse anti-B-tubulin (1:700, Sigma) or mouse anti-opsin (1:200, Chemicon). […] No opsin-positive cells were detected in the spontaneous differentiation without TGF-b3 (FIG. 7b), the treated cells were positive for bIII-tubulin and GFAP (FIG. 7a).

rat retina = test: Transplantation of pretreated NSCs into the rat vitreous cavity (opsin immunocytochemistry, human opsin ISHH); type: in vivo; conditions: FIG. 8(II); 8 days after transplantation to rat eye; NSCs exposed for four days to 20 ng/ml IGF-1, 100 ng/ml TGF-b3 or 10 ng/ml CNTF
MeSCs = test: Retinal cell differentiation of MeSCs with growth factor treatment; type: cell-based; conditions: without BrdU pre-treatment

Molecule	differentiation of NSCs into retinal cells (opsin staining) (human NSCs)	differentiation of transplanted NSCs to opsin-expressing cells in vivo (rat retina)	retinal cell-differentiation of MeSCs (MeSCs)	differentiation of NSCs into opsin-positive cells (human NSCs)
IGF-1: insulin-like growth factor-1	can differentiate into retinal cells	differentiated to opsin-expressing cells in vivo	–	–
VEGF	–	–	not sufficient to confer retinal cell-differentiation	no opsin-positive cells were detectable
B1	can differentiate into retinal cells	differentiated to opsin-expressing cells in vivo	–	–
B2	can differentiate into retinal cells	differentiated to opsin-expressing cells in vivo	not sufficient to confer retinal cell-differentiation	differentiated into opsin-positive cells
